# Measured values: IntAct's records for PubMed 16614222
# B1: Phospholipase D alpha 1 (Arabidopsis thaliana (Mouse-ear cress)), Q38882 (parent)
# chain: MAQHLLHGTLHATIYEVDALHGGGVRQGFLGKILANVEETIGVGKGETQLYATIDLQKARVGRTRKIKNEPKNPKWYESFHIYCAHLASDIIFTVKDDNPIGATLIGRAYIPVDQVINGEEVDQWVEILDNDRNPIQGGSKIHVKLQYFHVEEDRNWNMGIKSAKFPGVPYTFFSQRQGCKVSLYQDAHIPDNFVPRIPLAGGKNYEPQRCWEDIFDAISNAKHLIYITGWSVYAEIALVRDSRRPKPGGDVTIGELLKKKASEGVRVLLLVWDDRTSVDVLKKDGLMATHDEETENFFRGSDVHCILCPRNPDDGGSIVQSLQISTMFTHHQKIVVVDSEMPSRGGSEMRRIVSFVGGIDLCDGRYDTPFHSLFRTLDTVHHDDFHQPNFTGAAITKGGPREPWHDIHSRLEGPIAWDVMYNFEQRWSKQGGKDILVKLRDLSDIIITPSPVMFQEDHDVWNVQLFRSIDGGAAAGFPESPEAAAEAGLVSGKDNIIDRSIQDAYIHAIRRAKDFIYVENQYFLGSSFAWAADGITPEDINALHLIPKELSLKIVSKIEKGEKFRVYVVVPMWPEGLPESGSVQAILDWQRRTMEMMYKDVIQALRAQGLEEDPRNYLTFFCLGNREVKKDGEYEPAEKPDPDTDYMRAQEARRFMIYVHTKMMIVDDEYIIIGSANINQRSMDGARDSEIAMGGYQPHHLSHRQPARGQIHGFRMSLWYEHLGMLDETFLDPSSLECIEKVNRISDKYWDFYSSESLEHDLPGHLLRYPIGVASEGDITELPGFEFFPDTKARILGTKSDYLPPILTT
# Variants of: B1
# Conditions: with xlg3_arath XLG3, Q9C516
row,effect of a mutation on the interaction,Variant
1,decreasing interaction,F565A
2,decreasing interaction,K564A
3,decreasing interaction,E563A
